Measurements published in paper PMC10897489.

Target: GST-NSP3 1–181 (SARS-CoV-2)
Experiment: ITC

“His-FXR1 215–360 (from UniProt A0A0F7L1S3 215-360) (domain or fragment)” showed a Kd of 2300 to 2900 nM.
